From CN114426577A (CHINESE DISEASE PREVENTION AND CONTROL CENTER FOR …, dated 2022)
Changes are numbered by the printed parent chain.

B1: SWB8 (antibody, V domains shown)
VH: EVQLVESGGGLVQPGGSLRLSCAASGFTIRSYEMNWVRQAPGKGLEWVSYISSSGTTIYYADSVKGRFTISRDTAKNSLYLQMNSLRAEDTAVYYCAREGDYPSAEYFHHWGQGTLVTVSS
VL: DIVMTQSSVSLAVSLGERATINCKSSQSVLYSSTNRSYLAWYQQKPGQSPKLLIYWASTRESGVPDRFSGSGSGTDFTLTISSLQAEDVAVYYCQQYYSTRRTFGQGTKLEIKR
B2: LHC11 (antibody, V domains shown)
VH: EVQLVESGGGLIQPGGSLKLSCAATEIIVSRNYMTWVRQAPGKGLEWVSIIYPGGSSFYAESVKGRFTISRDEPKNTLFLQMNSLRVEDTAVYYCARGYGDYYFDFWGQGTLVTVSS
VL: EIVLTQSPVTLSLSPGERATLSCRASQSVSSSYLAWYQQKPGQAPRLLIYGASSRATGIPDRFSGSGSGTDFTLTISRLEPEDFAVYYCQQWLTFGGGTKVEIKV
B3: LHD2 (antibody, V domains shown)
VH: QMQLVQSGPEVKKPGTSLKVSCKASGFAFTTSAVQWVRQARGQPLEWIGWIAVGSGKADYAQRFQERVTISRDMSTTTAYMELSSLSSEDTAVYFCAAPFCTRTTCLDGFDIWGQGTMVTVSS
VL: EIVLTQSPVTLSLSPGERATLSCRAGQSVSRNYLGWYQQKPGQAPRLLIYAASSRATGIPDRFSGRGSGTDFTLTISRLEPEDFAVYYCQQYGTSPWTFGQGTKVEIKV
B4: LHD7 (antibody, V domains shown)
VH: QMQLVQSGPEVKKPGTSVKVSCKASGFTFITAAVQWVRQARGQRLEWIGWIAVGSGKTDYAQKFQERVTITRDISTSTAYMEVKSLRSEDTALYYCAAPQCNRTTCLDGFDIWGQGTKVIVSS
VL: B3 VL with G26S, N32S, A51G, S64R, R66S

Molecular target: SARS-Cov-2 Omicron变异株的生物素化RBD(South Africa/CERI-KRISP-K032195/2021) (SARS-CoV-2 Omicron variant, UniProt P0DTC2 319-541)
Assay: not given

**Q.** Which Kd does the source give for B1 here?
**A.** < 1 pM

**Q.** For B2, which Kd is on record?
**A.** 960 pM

**Q.** For B3, which Kd is on record?
**A.** < 1 pM

**Q.** How did the Kd turn out when B4 was run?
**A.** < 1 pM

Molecular target: SARS-CoV-2 S蛋白 (Delta变异株, 假病毒) (SARS-CoV-2 Delta variant, UniProt P0DTC2 14-1273)
Assay: cell-based or functional assay

**Q.** With B1 as the binder, how does the “假病毒中和能力(IC50)” value read?
**A.** 0.018 µg/mL

**Q.** With B2 as the binder, how does the “假病毒中和能力(IC50)” value read?
**A.** 0.027 µg/mL

**Q.** Which “假病毒中和能力(IC50)” value does the source give for B3 here?
**A.** 0.005 µg/mL

**Q.** With B4 as the binder, how does the “假病毒中和能力(IC50)” value read?
**A.** 0.008 µg/mL

Molecular target: SARS-CoV-2 S蛋白 (Omicron变异株, 假病毒) (SARS-CoV-2 Omicron variant, UniProt P0DTC2 14-1273)
Assay: cell-based or functional assay

**Q.** With B1 as the binder, how does the “假病毒中和能力(IC50)” value read?
**A.** 0.032 µg/mL

**Q.** B2 was tested. Which “假病毒中和能力(IC50)” value did it give?
**A.** 0.024 µg/mL

**Q.** For B3, which “假病毒中和能力(IC50)” value is on record?
**A.** 0.045 µg/mL

**Q.** B4 was tested. Which “假病毒中和能力(IC50)” value did it give?
**A.** 0.025 µg/mL
